From publication PMC10786891, “Massively parallel profiling of RNA-targeting CRISPR-Cas13d”
Numbering of substitutions follows the chain as printed. Names may count otherwise.

B1: target 1 A1G,U3C (mixed)
RNA 1: CACCCGUGCAAAAAUGCAGGGGUCUAAAACUGAGCGGAUAACCUCUCUAUGG
RNA 2: GGGAAUGGAUCCACAUCUACGAAUUCGUACCAUAGAGAGGUUAUCCGCCCGCCGAGAUCGGAAGAGCACACGU
B2: target 1 C6A,A20C (mixed)
RNA 1: B1 RNA 1
RNA 2: B1 RNA 2 with A32C, C46A, C49U, G51A
B3: target 1 U8C,A18U (mixed)
RNA 1: B1 RNA 1
RNA 2: B1 RNA 2 with A34U, U44C, C49U, G51A
B4: target 1 insG 3' of 16,insG 3' of 9 (mixed)
RNA 1: B1 RNA 1
RNA 2: GGGAAUGGAUCCACAUCUACGAAUUCGUACCAUAGAGGAGGUUAGUCCGCUCACCGAGAUCGGAAGAGCACACGU
B5: target 3 insA 3' of 10,insC 3' of 8 (mixed)
RNA 1: CACCCGUGCAAAAUUGCAGGGGUCUAAAACGACCUGAAUAUUUCAGAUCAAA
RNA 2: GGGAAUGGAUCCACAUCUACGAAUUCGUUUUUGAUCUGAAAUAAUCUCAGGUCUGCAGAUCGGAAGAGCACACGU
B6: target 3 C6G,U8G (mixed)
RNA 1: B5 RNA 1
RNA 2: GGGAAUGGAUCCACAUCUACGAAUUCGUUUUUGAUCUGAAAUAGUGAGGUCUGCAGAUCGGAAGAGCACACGU
B7: target 3 insA 3' of 22,insG 3' of 8 (mixed)
RNA 1: B5 RNA 1
RNA 2: GGGAAUGGAUCCACAUCUACGAAUUCGUUUAUUGAUCUGAAAUAUGUCAGGUCUGCAGAUCGGAAGAGCACACGU
B8: target 3 insC 3' of 8,insA 3' of 6 (mixed)
RNA 1: B5 RNA 1
RNA 2: B5 RNA 2 with A44U, U45C, C46U, U47C, C48A
B9: target 3 G19U,U21A (mixed)
RNA 1: B5 RNA 1
RNA 2: B6 RNA 2 with U31A, G33U, G44U, G46C
B10: target 3 U2G,U10G (mixed)
RNA 1: B5 RNA 1
RNA 2: B6 RNA 2 with U42G, G44U, G46C, U50G
B11: target 3 G3U,A9G (mixed)
RNA 1: B5 RNA 1
RNA 2: B6 RNA 2 with A43G, G44U, G46C, G49U
B12: target 3 C6U,U8G (mixed)
RNA 1: B5 RNA 1
RNA 2: B6 RNA 2 with G46U
B13: target 3 insG 3' of 16,insU 3' of 3 (mixed)
RNA 1: B5 RNA 1
RNA 2: GGGAAUGGAUCCACAUCUACGAAUUCGUUUUUGAUCGUGAAAUAUUCAGGUUCUGCAGAUCGGAAGAGCACACGU
B14: target 3 insU 3' of 14,insG 3' of 5 (mixed)
RNA 1: B5 RNA 1
RNA 2: B13 RNA 2 with G37U, U38G, G39U, U51G
B15: target 3 C6U,U22A (mixed)
RNA 1: B5 RNA 1
RNA 2: B6 RNA 2 with U30A, G44U, G46U
B16: target 3 insC 3' of 20,insA 3' of 6 (mixed)
RNA 1: B5 RNA 1
RNA 2: B7 RNA 2 with A31U, U33C, G46U, U47C, C48A
B17: target 3 U7G,U8C (mixed)
RNA 1: B5 RNA 1
RNA 2: B6 RNA 2 with G44C, U45G, G46C
B18: target 3 G3A,G4U (mixed)
RNA 1: B5 RNA 1
RNA 2: B6 RNA 2 with G44U, G46C, G48U, G49A
B19: target 3 insG 3' of 8,insC 3' of 5 (mixed)
RNA 1: B5 RNA 1
RNA 2: B5 RNA 2 with A44U, U45G, C46U, U47C, C48A, A49C
B20: target 3 insC 3' of 7 (mixed)
RNA 1: B5 RNA 1
RNA 2: GGGAAUGGAUCCACAUCUACGAAUUCGUUUUUGAUCUGAAAUAUUCCAGGUCUGCAGAUCGGAAGAGCACACGU
B21: target 3 insC 3' of 4,insC 3' of 3 (mixed)
RNA 1: B5 RNA 1
RNA 2: B5 RNA 2 with A44U, U47A, C48G, A49C, G51C
B22: target 3 C1A,G3A (mixed)
RNA 1: B5 RNA 1
RNA 2: B6 RNA 2 with G44U, G46C, G49A, C51A
B23: target 3 U2A,G4U (mixed)
RNA 1: B5 RNA 1
RNA 2: B6 RNA 2 with G44U, G46C, G48U, U50A
B24: target 3 G3A (mixed)
RNA 1: B5 RNA 1
RNA 2: B6 RNA 2 with G44U, G46C, G49A
B25: target 3 insA 3' of 8,insG 3' of 6 (mixed)
RNA 1: B5 RNA 1
RNA 2: B5 RNA 2 with A44U, U45A, C46U, U47C, C48G
B26: target 3 U21A (mixed)
RNA 1: B5 RNA 1
RNA 2: B6 RNA 2 with U31A, G44U, G46C
B27: target 3 U2C,U7A (mixed)
RNA 1: B5 RNA 1
RNA 2: B6 RNA 2 with G44U, U45A, G46C, U50C
B28: target 3 G4U (mixed)
RNA 1: B5 RNA 1
RNA 2: B6 RNA 2 with G44U, G46C, G48U
B29: target 3 C6G,A18G (mixed)
RNA 1: B5 RNA 1
RNA 2: B6 RNA 2 with A34G, G44U
B30: target 3 del4 (mixed)
RNA 1: B5 RNA 1
RNA 2: GGGAAUGGAUCCACAUCUACGAAUUCGUUUUUGAUCUGAAAUAUUCAGUCUGCAGAUCGGAAGAGCACACGU
B31: target 3 insG 3' of 22,insA 3' of 2 (mixed)
RNA 1: B5 RNA 1
RNA 2: B7 RNA 2 with A31G, G46U, U47C, C48A, A49G, G51U, U52A
B32: target 3 C6U,U8C (mixed)
RNA 1: B5 RNA 1
RNA 2: B6 RNA 2 with G44C, G46U
B33: target 3 insA 3' of 10,insU 3' of 3 (mixed)
RNA 1: B5 RNA 1
RNA 2: B13 RNA 2 with G37U, U38G, G39A, A42U, U43A

Target: T1, EsCas13d, nuclease-dead (Eubacterium siraeum, UniProt B0MS50, R295A;H300A;R849A;H854A)
T1 sequence: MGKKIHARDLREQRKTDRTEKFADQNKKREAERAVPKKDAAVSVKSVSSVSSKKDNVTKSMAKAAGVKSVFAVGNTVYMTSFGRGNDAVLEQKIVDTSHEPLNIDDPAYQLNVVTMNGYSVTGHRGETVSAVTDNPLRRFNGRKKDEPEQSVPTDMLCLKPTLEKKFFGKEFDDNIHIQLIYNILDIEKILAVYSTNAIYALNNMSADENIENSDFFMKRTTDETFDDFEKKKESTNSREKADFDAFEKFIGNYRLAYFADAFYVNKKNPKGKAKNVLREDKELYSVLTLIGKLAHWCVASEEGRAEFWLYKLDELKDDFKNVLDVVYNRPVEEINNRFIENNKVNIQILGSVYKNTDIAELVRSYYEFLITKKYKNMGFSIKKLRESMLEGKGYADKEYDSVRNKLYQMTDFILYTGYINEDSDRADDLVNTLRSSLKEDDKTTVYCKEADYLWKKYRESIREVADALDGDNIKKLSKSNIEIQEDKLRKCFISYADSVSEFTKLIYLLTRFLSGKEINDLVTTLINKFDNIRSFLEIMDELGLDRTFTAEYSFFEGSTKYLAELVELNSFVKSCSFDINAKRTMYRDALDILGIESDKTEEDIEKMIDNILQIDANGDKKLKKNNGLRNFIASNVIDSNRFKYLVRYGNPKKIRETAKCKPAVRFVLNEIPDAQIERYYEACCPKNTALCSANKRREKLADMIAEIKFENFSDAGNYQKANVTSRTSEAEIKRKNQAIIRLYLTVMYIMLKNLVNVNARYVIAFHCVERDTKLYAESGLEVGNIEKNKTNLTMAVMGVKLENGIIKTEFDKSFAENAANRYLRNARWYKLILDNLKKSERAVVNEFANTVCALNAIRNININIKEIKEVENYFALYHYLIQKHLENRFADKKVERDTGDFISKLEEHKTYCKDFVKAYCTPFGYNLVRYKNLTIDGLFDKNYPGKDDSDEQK
Test: crRNA (strand 1, pre-loaded); Mg2+; 40 mM Tris-HCl pH 7.5, 150 mM NaCl, 6 mM MgCl2, 1 mM DTT, 0.1% Tween-20, 0.2 mg/ml BSA; 25 C; 10 min per concentration, then washed
Details: tags: His6-TwinStrep-SUMO cleaved; N-terminal SNAP kept (SNAP-Surface 488); label: 3' end held by stalled T7 RNA polymerase

Binder | Kd [nM]
B1 | 35 ± 7
B2 | 38 ± 4
B3 | 43 ± 4
B4 | 31 ± 4
B5 | 102 ± 37
B6 | 64 ± 8.5
B7 | ~90
B8 | 71 ± 10.5
B9 | 99.5 ± 14.5
B10 | ~105
B11 | 67.5 ± 12
B12 | 44.1 ± 3.35
B13 | ~71
B14 | 60.5 ± 19.5
B15 | 13.3 ± 1.4
B16 | 105 ± 43.5
B17 | 70 ± 11

Binder | Kd [nM]
B18 | 8.95 ± 0.95
B19 | 39 ± 4
B20 | 90.5 ± 20.5
B21 | 22.9 ± 2.65
B22 | 37.5 ± 13.5
B23 | 1.98 ± 0.2
B24 | 46 ± 11.5
B25 | 45.5 ± 4.5
B26 | 35.5 ± 4
B27 | 77 ± 23
B28 | 4.25 ± 0.335
B29 | 47 ± 9.5
B30 | 23.6 ± 3
B31 | 72 ± 21
B32 | 33.5 ± 2.95
B33 | 67.5 ± 17.5
